Reference: patent publication EP4335450A1 (Cellemedy Co., Ltd, dated 2024)

Target: T1, human transferrin receptor-Fc tag standard (human, UniProt P02786 89-760, limits assumed)
T1 construct: Coated on the ELISA plate at 2 µg/ml; also called hTfR; not shown: Fc tag
Experiment: ELISA, hTfR-Fc coated on plate; calculated from an expected saturation point, curve not saturated at 10000 nM

T1 sequence (P02786 89-760 limits assumed): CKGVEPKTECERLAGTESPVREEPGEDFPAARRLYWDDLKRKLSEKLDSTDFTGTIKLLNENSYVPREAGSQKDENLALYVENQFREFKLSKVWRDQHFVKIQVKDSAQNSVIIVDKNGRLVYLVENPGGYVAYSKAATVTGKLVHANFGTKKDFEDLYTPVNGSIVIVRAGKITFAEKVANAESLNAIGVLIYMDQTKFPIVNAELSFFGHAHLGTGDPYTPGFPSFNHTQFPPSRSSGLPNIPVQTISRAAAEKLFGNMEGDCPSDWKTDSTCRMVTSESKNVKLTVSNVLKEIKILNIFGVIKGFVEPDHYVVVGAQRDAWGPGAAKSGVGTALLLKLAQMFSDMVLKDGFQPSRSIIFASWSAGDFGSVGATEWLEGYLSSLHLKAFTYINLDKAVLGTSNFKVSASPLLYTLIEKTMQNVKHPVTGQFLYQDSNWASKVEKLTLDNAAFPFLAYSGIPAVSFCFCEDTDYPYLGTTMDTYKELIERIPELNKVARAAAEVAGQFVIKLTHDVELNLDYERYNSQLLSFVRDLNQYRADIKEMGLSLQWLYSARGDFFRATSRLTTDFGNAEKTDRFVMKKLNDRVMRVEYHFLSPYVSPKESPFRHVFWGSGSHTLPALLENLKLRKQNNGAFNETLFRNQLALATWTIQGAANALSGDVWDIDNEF

B1: huHF_Mutant2-dual (other)
chain: MTTASTSQVRQNYHAASEAAINAQINLELYASYVYLSMSYYFDRDDVALKNFAKYFLHQSHEEREHAEKLMKLQNQRGGRIALADIQKPDCDDGGSYGSLYAFDIWESGLNAMECALHLEKNVNQSLLALHALATAKNDPHLCDFIETHYLNEQVKAIKELGDHVTNLRKMGAPESGLAEYLFDKHTLGDSDNESMPSFITLASLSTWEGYFDF
notes: Ferritin particle of 24 monomers
**Q.** How did the Kd turn out when B1 was run?
**A.** Its Kd is roughly 4.4 µM.
